According to publication PMC11024467 (2024):

B1: IL-2Rαβγ complex (complex)
chain 1: ELCDDDPPEIPHATFKAMAYKEGTMLNCECKRGFRRIKSGSLYMLCTGNSSHSSWDNQCQCTSSATRNTTKQVTPQPEEQKERKTTEMQSPMQPVDQASLPGHCREPPPWENEATERIYHFVVGQMVYYQCVQGYRALHRGPAESVCKMTHGKTRWTQPQLICTGEMETSQFPGEEKPQASPEGRPESETSCLVTTTDFQIQTEMAATMETSIFTTEYQ
chain 2: AVNGTSQFTCFYNSRANISCVWSQDGALQDTSCQVHAWPDRRRWNQTCELLPVSQASWACNLILGAPDSQKLTTVDIVTLRVLCREGVRWRVMAIQDFKPFENLRLMAPISLQVVHVETHRCNISWEISQASHYFERHLEFEARTLSPGHTWEEAPLLTLKQKQEWICLETLTPDTQYEFQVRVKPLQGEFTTWSPWSQPLAFRTKPAALGKDT
chain 3: LNTTILTPNGNEDTTADFFLTTMPTDSLSVSTLPLPEVQCFVFNVEYMNCTWNSSSEPQPTNLTLHYWYKNSDNDKVQKCSHYLFSEEITSGCQLQKKEIHLYQTFVVQLQDPREPRRQATQMLKLQNLVIPWAPENLTLHKLSESQLELNWNNRFLNHCLEHLVQYRTDWDHSWTEQSVDYRHKFSLPSVDGQKRYTFRVRSRFNPLCGSAQHWSEWSHPIHWGSNTSKENPFLFALEA
B2: IL-2Rβγ complex (complex)
chain 1: AVNGTSQFTCFYNSRANISCVWSQDGALQDTSCQVHAWPDRRRWNQTCELLPVSQASWACNLILGAPDSQKLTTVDIVTLRVLCREGVRWRVMAIQDFKPFENLRLMAPISLQVVHVETHRCNISWEISQASHYFERHLEFEARTLSPGHTWEEAPLLTLKQKQEWICLETLTPDTQYEFQVRVKPLQGEFTTWSPWSQPLAFRTKPAALGKDT
chain 2: LNTTILTPNGNEDTTADFFLTTMPTDSLSVSTLPLPEVQCFVFNVEYMNCTWNSSSEPQPTNLTLHYWYKNSDNDKVQKCSHYLFSEEITSGCQLQKKEIHLYQTFVVQLQDPREPRRQATQMLKLQNLVIPWAPENLTLHKLSESQLELNWNNRFLNHCLEHLVQYRTDWDHSWTEQSVDYRHKFSLPSVDGQKRYTFRVRSRFNPLCGSAQHWSEWSHPIHWGSNTSKENPFLFALEA
B3: IL-2Rβ (receptor)
chain: AVNGTSQFTCFYNSRANISCVWSQDGALQDTSCQVHAWPDRRRWNQTCELLPVSQASWACNLILGAPDSQKLTTVDIVTLRVLCREGVRWRVMAIQDFKPFENLRLMAPISLQVVHVETHRCNISWEISQASHYFERHLEFEARTLSPGHTWEEAPLLTLKQKQEWICLETLTPDTQYEFQVRVKPLQGEFTTWSPWSQPLAFRTKPAALGKDT
B4: IL-2Rα (receptor)
chain: ELCDDDPPEIPHATFKAMAYKEGTMLNCECKRGFRRIKSGSLYMLCTGNSSHSSWDNQCQCTSSATRNTTKQVTPQPEEQKERKTTEMQSPMQPVDQASLPGHCREPPPWENEATERIYHFVVGQMVYYQCVQGYRALHRGPAESVCKMTHGKTRWTQPQLICTGEMETSQFPGEEKPQASPEGRPESETSCLVTTTDFQIQTEMAATMETSIFTTEYQ
B5: IL-2Rαβγ complex (complex)
chain 1: ELCDDDPPEIPHATFKAMAYKEGTMLNCECKRGFRRIKSGSLYMLCTGNSSHSSWDNQCQCTSSATRNTTKQVTPQPEEQKERKTTEMQSPMQPVDQASLPGHCREPPPWENEATERIYHFVVGQMVYYQCVQGYRALHRGPAESVCKMTHGKTRWTQPQLICTGEMETSQFPGEEKPQASPEGRPESETSCLVTTTDFQIQTEMAATMETSIFTTEYQVAVAGCVFLLISVLLLSGLTWQRRQRKSRRTI
chain 2: AVNGTSQFTCFYNSRANISCVWSQDGALQDTSCQVHAWPDRRRWNQTCELLPVSQASWACNLILGAPDSQKLTTVDIVTLRVLCREGVRWRVMAIQDFKPFENLRLMAPISLQVVHVETHRCNISWEISQASHYFERHLEFEARTLSPGHTWEEAPLLTLKQKQEWICLETLTPDTQYEFQVRVKPLQGEFTTWSPWSQPLAFRTKPAALGKDTIPWLGHLLVGLSGAFGFIILVYLLINCRNTGPWLKKVLKCNTPDPSKFFSQLSSEHGGDVQKWLSSPFPSSSFSPGGLAPEISPLEVLERDKVTQLLLQQDKVPEPASLSSNHSLTSCFTNQGYFFFHLPDALEIEACQVYFTYDPYSEEDPDEGVAGAPTGSSPQPLQPLSGEDDAYCTFPSRDDLLLFSPSLLGGPSPPSTAPGGSGAGEERMPPSLQERVPRDWDPQPLGPPTPGVPDLVDFQPPPELVLREAGEEVPDAGPREGVSFPWSRPPGQGEFRALNARLPLNTDAYLSLQELQGQDPTHLV
chain 3: LNTTILTPNGNEDTTADFFLTTMPTDSLSVSTLPLPEVQCFVFNVEYMNCTWNSSSEPQPTNLTLHYWYKNSDNDKVQKCSHYLFSEEITSGCQLQKKEIHLYQTFVVQLQDPREPRRQATQMLKLQNLVIPWAPENLTLHKLSESQLELNWNNRFLNHCLEHLVQYRTDWDHSWTEQSVDYRHKFSLPSVDGQKRYTFRVRSRFNPLCGSAQHWSEWSHPIHWGSNTSKENPFLFALEAVVISVGSMGLIISLLCVYFWLERTMPRIPTLKNLEDLVTEYHGNFSAWSGVSKGLAESLQPDYSERLCLVSEIPPKGGALGEGPGASPCNQHSPYWAPPCYTLKPET
B6: IL-2Rβγ complex (complex)
chain 1: AVNGTSQFTCFYNSRANISCVWSQDGALQDTSCQVHAWPDRRRWNQTCELLPVSQASWACNLILGAPDSQKLTTVDIVTLRVLCREGVRWRVMAIQDFKPFENLRLMAPISLQVVHVETHRCNISWEISQASHYFERHLEFEARTLSPGHTWEEAPLLTLKQKQEWICLETLTPDTQYEFQVRVKPLQGEFTTWSPWSQPLAFRTKPAALGKDTIPWLGHLLVGLSGAFGFIILVYLLINCRNTGPWLKKVLKCNTPDPSKFFSQLSSEHGGDVQKWLSSPFPSSSFSPGGLAPEISPLEVLERDKVTQLLLQQDKVPEPASLSSNHSLTSCFTNQGYFFFHLPDALEIEACQVYFTYDPYSEEDPDEGVAGAPTGSSPQPLQPLSGEDDAYCTFPSRDDLLLFSPSLLGGPSPPSTAPGGSGAGEERMPPSLQERVPRDWDPQPLGPPTPGVPDLVDFQPPPELVLREAGEEVPDAGPREGVSFPWSRPPGQGEFRALNARLPLNTDAYLSLQELQGQDPTHLV
chain 2: LNTTILTPNGNEDTTADFFLTTMPTDSLSVSTLPLPEVQCFVFNVEYMNCTWNSSSEPQPTNLTLHYWYKNSDNDKVQKCSHYLFSEEITSGCQLQKKEIHLYQTFVVQLQDPREPRRQATQMLKLQNLVIPWAPENLTLHKLSESQLELNWNNRFLNHCLEHLVQYRTDWDHSWTEQSVDYRHKFSLPSVDGQKRYTFRVRSRFNPLCGSAQHWSEWSHPIHWGSNTSKENPFLFALEAVVISVGSMGLIISLLCVYFWLERTMPRIPTLKNLEDLVTEYHGNFSAWSGVSKGLAESLQPDYSERLCLVSEIPPKGGALGEGPGASPCNQHSPYWAPPCYTLKPET

What follows are binders tested against Wild type IL-2 (de-alanine-1, C58S, C125S) (UniProt P60568 21-153, de-alanine-1 | C58S | C125S) (assay: SPR).

| Binder | Kd |
| --- | --- |
| B1 | 0.0423 nM |
| B2 | 0.463 nM |
| B3 | 89.1 nM |
| B4 | 47.5 nM |

The binders below were run against IL-2 variant 012 (assay: SPR).

| Binder | Kd |
| --- | --- |
| B5 | 0.575 nM |
| B6 | 0.467 nM |
